Experimental data published in paper PMC7938106, “In vitro complex formation of human PYRIN domain-only protein 3 prevented by self-oligomerization of ASC PYD domain” (Saudi Journal of Biological Sciences, 2021).

Target: the molecule itself
Test: SEC-MALS; POP3 PYD (1-83) alone on column HR 10/30 in 20 mM Tris-HCl pH 8.0, 150 mM NaCl; three-angle light scattering and refractive index detectors, ASTRA software

B1: PYD domain of PYRIN Domain-Only Protein 3 (POP3), amino acids 1-83 (domain or fragment, human, UniProt W6CW81 1-83, looked up)
chain: MESKYKEILLLTSLDNITDEELDRFKCFLPDEFNIATGKLHTLNSTSSQLDLKRWHGVCSEEDRIFQKLNYMLVAKCLREEQE
notes: PYRIN domain-only protein 3 (POP3), human, PYD domain, residues 1-83 of the 113-residue protein; The vector probably adds linker residues before the His6; also called POP3 PYD (1-83 aa); POP3PYD; not shown: His6, C-terminal, kept
**Q.** B1 was tested. Which “stoichiometry N” value did it give?
**A.** 2
